{"source": "paper PMC10034468", "about": "“The Pseudomonas aeruginosa PAO1 metallo flavoprotein D-2-hydroxyglutarate dehydrogenase requires Zn^2+ for substrate orientation and activation” (The Journal of Biological Chemistry, 2023)", "proteins": {"B1": {"name": "PaD2HGDH (E-Zn^2+ and E-Co^2+) (Pseudomonas aeruginosa PAO1) (protein)", "chain": "MTREALIESLKPLVEPGKLLDDAASLDAYGKDWTKHFAPAPLAIVFPKSVEQVQAIVRWANQHKVGLVPSGGRTGLSAAAVAANGEVVVAFDYMNRILDFNAFDRTVVCQPGVVTKQLQTFAEENGLYYPVDFASSGSSQIGGNIGTNAGGIKVIRYGMTRNWVAGMKVVTGKGDLLELNKDLIKNATGYDMRQLFIGAEGTLGFVVEATMRLERTPKNLTAMVLGTPDFDSIMPVLHAFQSKLDLTAFEFFSDKALAKVLARGDVPRAFETDCPFYALLEFEATTEEVANEALATFEHCVEQGWVLDGVMSQSEQQLQNLWKLREYISETISHWTPYKNDISVTVSRVPAFLKDIDAIVEANYPDFEVVWFGHIGDGNLHLNILKPENLGKDEFFAKCATVNKWVFETVEKYNGSISAEHGVGMTKRDYLTYTRSETEIAYMKALKAVFDPNGIMNPGKIFAE", "notes": "FAD enzyme"}}, "key": {"[1]": {"substrate": "O=C(O)CC[C@@H](O)C(=O)O", "assay": "steady-state oxygen consumption, Clark-type electrode", "assay_type": "biochemical, Pseudomonas aeruginosa", "details": "E-Zn2+, PMS as co-substrate, 25 mM NaPO4, pH 7.4, 25 °C", "from_the_text": "(§1) steady-state oxygen consumption, Clark-type electrode on PaD2HGDH (E-Zn^2+ and E-Co^2+)"}, "[2]": {"substrate": "O=C(O)C[C@@H](O)C(=O)O", "assay": "steady-state oxygen consumption, Clark-type electrode", "assay_type": "biochemical, Pseudomonas aeruginosa", "details": "E-Zn2+, PMS as co-substrate, 25 mM NaPO4, pH 7.4, 25 °C", "from_the_text": "as §1"}}, "data": [{"protein": "B1", "values": [{"measurement": "Km", "setting": "[1]", "result": "0.08 ± 0.01", "unit": "mM"}, {"measurement": "kcat", "setting": "[1]", "result": "26 ± 1", "unit": "s⁻¹"}, {"measurement": "kcat/Km", "setting": "[1]", "result": "330000 ± 43000", "unit": "M⁻¹ s⁻¹"}, {"measurement": "Km", "setting": "[2]", "result": "6.0 ± 0.6", "unit": "mM"}, {"measurement": "kcat", "setting": "[2]", "result": "52 ± 2", "unit": "s⁻¹"}, {"measurement": "kcat/Km", "setting": "[2]", "result": "9000 ± 900", "unit": "M⁻¹ s⁻¹"}]}]}
